Measured values from patent publication US20130040882A1, “USE OF FIBROBLAST GROWTH FACTOR FRAGMENTS” (NOVARTIS AG, priority 2003, published 2013).
Several values for one entry are separate records, joined by “and”; a condition that tells them apart may be missing. Equal values may be shown once. Read-outs that look alike come from different tables or passages of the source.

Test system: transcript levels in organs
Assay type: in vivo, cynomolgus monkey

B1: FGF23CTP: unique 75-mer COOH-terminal peptide of FGF-23, SEQ ID NO: 2 (peptide, listed as Homo sapiens)
chain: HTRSAEDDSERDPLNVLKPRARMTPAPASCSQELPSAEDNSPMASDPLGVVRGGRVNTHAGGTGPEGCRPFAKFI
Gene expression level after 2 weeks, mean: EGF-response factor 1 (AV node): 1,819.7
Gene expression level after 2 weeks, mean: Endothelial differentiation receptor 6 (AV node): 306.9
Gene expression level after 2 weeks, mean: FLT receptor tyrosine kinase 1 (AV node): 120.1
Gene expression level after 2 weeks, mean: Insulin-like growth factor II (AV node): 565.275
Gene expression level after 2 weeks, mean: Insulin-like growth factor binding protein 2 (AV node): 880.75
Gene expression level after 2 weeks, mean: Vascular endothelial growth factor-A (VEGFA) (AV node): 363.7
Gene expression level after 2 weeks, mean: Activin A receptor type II (Adrenal): 58.5
Gene expression level after 2 weeks, mean: Bone morphogenetic protein 1 (Adrenal): 210.6
Gene expression level after 2 weeks, mean: Bone morphogenetic protein receptor, type II (Adrenal): 101.25
Gene expression level after 2 weeks, mean: Cdk-inhibitor 1A p21 (Cip1) (Adrenal): 51.75
Gene expression level after 2 weeks, mean: E2F-5 (Adrenal): 39.6
Gene expression level after 2 weeks, mean: FGF receptor-1 (Adrenal): 624.2
Gene expression level after 2 weeks, mean: FLK1 receptor tyrosine kinase (Adrenal): 42.7
Gene expression level after 2 weeks, mean: VE-cadherin (Adrenal): 110.2
Gene expression level after 2 weeks, mean: Colony-stimulating factor-1 (B marrow): 981.3
Gene expression level after 2 weeks, mean: Insulin-like growth factor II (B marrow): 209.5
Gene expression level after 2 weeks, mean: Angiopoietin-1 (Bone Marrow): 123.2
Gene expression level after 2 weeks, mean: Cyclin E2 (Bone Marrow): 257
Gene expression level after 2 weeks, mean: E2F dimerization partner 2 (DP2) (Bone Marrow): 1222
Gene expression level after 2 weeks, mean: Endothelial differentiation receptor 4 (Bone Marrow): 494.8
Gene expression level after 2 weeks, mean: Mdm2 (Bone Marrow): 20
Gene expression level after 2 weeks, mean: TEK tyrosine kinase, angiopoietin receptor (Bone Marrow): 52.7
Gene expression level after 2 weeks, mean: Bone morphogenetic protein 2A (Duodenum): 55.3
Gene expression level after 2 weeks, mean: Cdk-inhibitor p57KIP2 (KIP2) (Duodenum): 138.6
Gene expression level after 2 weeks, mean: Cyclin I (Duodenum): 900.6
Gene expression level after 2 weeks, mean: FLT receptor tyrosine kinase 1 (Duodenum): 70.7
Gene expression level after 2 weeks, mean: Farnesol receptor HRR-1 (Duodenum): 53.1
Gene expression level after 2 weeks, mean: Cyclin-dependent kinase 5 (Hippocampus): 118.7
Gene expression level after 2 weeks, mean: E2F-4 (Hippocampus): 153.4
Gene expression level after 2 weeks, mean: Neuregulin 1 (Hippocampus): 86.075
Gene expression level after 2 weeks, mean: Cyclin D3 (Muscle): 149.2
Gene expression level after 2 weeks, mean: E2F-4 (Muscle): 643.8
Gene expression level after 2 weeks, mean: Endothelial differentiation receptor 6 (Muscle): 181.9
Gene expression level after 2 weeks, mean: Insulin-like growth factor I (Muscle): 107.65
Gene expression level after 2 weeks, mean: Placental growth factor (Muscle): 91.4
Gene expression level after 2 weeks, mean: Retinoid X receptor-gamma (Muscle): 580.9
Gene expression level after 2 weeks, mean: Transforming growth factor β2 (Muscle): 58.3
Gene expression level after 2 weeks, mean: p53 binding protein (Muscle): 138.7
Gene expression level after 2 weeks, mean: Activin A receptor type II (ROHY): 54.9
Gene expression level after 2 weeks, mean: Angiopoietin-1 (ROHY): 162.5
Gene expression level after 2 weeks, mean: Brain-specific angiogenesis inhibitor 1 (MAS5) (ROHY): 225.1
Gene expression level after 2 weeks, mean: Cdk-inhibitor p19 (ROHY): 267.8
Gene expression level after 2 weeks, mean: Colony-stimulating factor-1 (ROHY): 802.5
Gene expression level after 2 weeks, mean: Cyclin A/CDK2-associated p19 (Skp1) (ROHY): 1069.6
Gene expression level after 2 weeks, mean: Cyclin D2 (ROHY): 197.1
Gene expression level after 2 weeks, mean: Cyclin-dependent kinase 4 (ROHY): 197.6
Gene expression level after 2 weeks, mean: E2F-4 (ROHY): 245.9
Gene expression level after 2 weeks, mean: EPHB2v protein-tyrosine kinase (ROHY): 119.1
Gene expression level after 2 weeks, mean: Epidermal growth factor receptor (ROHY): 103.1
Gene expression level after 2 weeks, mean: FGF receptor-1 (ROHY): 932.4
Gene expression level after 2 weeks, mean: Growth differentiation factor 1 (ROHY): 1,410.2
Gene expression level after 2 weeks, mean: RalGDS/AF-6 (inhibitor of Cyclin D1) (ROHY): 300.5
Gene expression level after 2 weeks, mean: Retinoblastoma 1 (ROHY): 467.9
Gene expression level after 2 weeks, mean: Retinoblastoma binding protein 4 (ROHY): 164
Gene expression level after 2 weeks, mean: Retinoid X receptor-beta (ROHY): 106.925
Gene expression level after 2 weeks, mean: S-phase response (cyclin-related) (ROHY): 176
Gene expression level after 2 weeks, mean: Transforming growth factor β3 (ROHY): 88.4
Gene expression level after 2 weeks, mean: Tumour necrosis factor receptor-2 (ROHY): 126.4
Gene expression level after 2 weeks, mean: VEGFB (ROHY): 626.2
Gene expression level after 2 weeks, mean: Vascular endothelial growth factor-A (VEGFA) (ROHY): 326.175
Gene expression level after 2 weeks, mean: p53 binding protein (ROHY): 154.7
Gene expression level after 2 weeks, mean: S-phase response (cyclin-related) (Re atrium): 159.1
Gene expression level after 2 weeks, mean: Activin A receptor type II (Retina): 34.1
Gene expression level after 2 weeks, mean: Brain-specific angiogenesis inhibitor 2 (Retina): 153.2
Gene expression level after 2 weeks, mean: Cyclin D2 (Retina): 132
Gene expression level after 2 weeks, mean: Insulin-like growth factor binding protein 2 (Retina): 807.9
Gene expression level after 2 weeks, mean: Cdk-inhibitor p57KIP2 (KIP2) (Thymus): 247.9
Gene expression level after 2 weeks, mean: FGF receptor-1 (Thymus): 153.2
Gene expression level after 2 weeks, mean: TNFR-related death receptor-3 (cynomolgus monkey, in vivo): 82.4
Gene expression level after 2 weeks, mean: TNFR-related death receptor-6 (cynomolgus monkey, in vivo): 144.65 and 98.8
Gene expression level after 2 weeks, mean: Bone morphogenetic protein 10 (kidney): 138.6
Gene expression level after 2 weeks, mean: Colony-stimulating factor-1 (kidney): 659.75
Gene expression level after 2 weeks, mean: E2F-1 (kidney): 198.5
Gene expression level after 2 weeks, mean: E2F-4 (kidney): 741.6
Gene expression level after 2 weeks, mean: Neuregulin 1 (kidney): 150.725
Gene expression level after 2 weeks, mean: Bone morphogenetic protein 10 (liver): 134.1
Gene expression level after 2 weeks, mean: EPHB2v protein-tyrosine kinase (liver): 82.6
Gene expression level after 2 weeks, mean: Endothelial differentiation receptor 4 (liver): 391.7
Gene expression level after 2 weeks, mean: Farnesol receptor HRR-1 (liver): 383.3
Gene expression level after 2 weeks, mean: Insulin-like growth factor I (liver): 1,055.4
Gene expression level after 2 weeks, mean: Insulin-like growth factor II (liver): 606.9
Gene expression level after 2 weeks, mean: Insulin-like growth factor binding protein 1 (liver): 1,517
Gene expression level after 2 weeks, mean: Insulin-like growth factor binding protein 2 (liver): 3,858.6
Gene expression level after 2 weeks, mean: 14-3-3 protein tau (rostral hypothalamus): 1,748.5
Gene expression level after 2 weeks, mean: Amyloid beta precursor protein (cytoplasmic tail)-binding protein 2 (rostral hypothalamus): 191.3
Gene expression level after 2 weeks, mean: Anion exchanger (rostral hypothalamus): 844.5
Gene expression level after 2 weeks, mean: Axl (rostral hypothalamus): 60.3
Gene expression level after 2 weeks, mean: BAX (rostral hypothalamus): 134.4
Gene expression level after 2 weeks, mean: Bcl-2-binding protein Nip3 (rostral hypothalamus): 794.8
Gene expression level after 2 weeks, mean: Bmi-1 homeobox gene repressor (rostral hypothalamus): 374.7
Gene expression level after 2 weeks, mean: CMP-sialic acid transporter (rostral hypothalamus): 135.075
Gene expression level after 2 weeks, mean: CREB binding protein (rostral hypothalamus): 93
Gene expression level after 2 weeks, mean: Ca2+-ATPase (rostral hypothalamus): 174.4
Gene expression level after 2 weeks, mean: Calcineurin A1 (rostral hypothalamus): 173.975
Gene expression level after 2 weeks, mean: Cholecystokinin A receptor (rostral hypothalamus): 196
Gene expression level after 2 weeks, mean: Connexin 43 (rostral hypothalamus): 184.5
Gene expression level after 2 weeks, mean: Delta 2 catenin (rostral hypothalamus): 118
Gene expression level after 2 weeks, mean: Erk3 (rostral hypothalamus): 409.5
Gene expression level after 2 weeks, mean: FYN (rostral hypothalamus): 958.1
Gene expression level after 2 weeks, mean: GDP dissociation inhibitor beta (rostral hypothalamus): 125.8
Gene expression level after 2 weeks, mean: Glycogen synthase kinase 3 (rostral hypothalamus): 155.5
Gene expression level after 2 weeks, mean: Hypoxia-inducible factor 1 alpha (rostral hypothalamus): 286.5
Gene expression level after 2 weeks, mean: Inhibitor of DNA binding 4 (rostral hypothalamus): 67.6
Gene expression level after 2 weeks, mean: JNK2 (rostral hypothalamus): 79.9
Gene expression level after 2 weeks, mean: Jagged 1 (rostral hypothalamus): 70.3
Gene expression level after 2 weeks, mean: Janus kinase 1 (rostral hypothalamus): 43.3
Gene expression level after 2 weeks, mean: Mnb (Minibrain) (rostral hypothalamus): 446
Gene expression level after 2 weeks, mean: Myelin oligodendrocyte glycoprotein (rostral hypothalamus): 62.7
Gene expression level after 2 weeks, mean: Myosin regulatory light chain (rostral hypothalamus): 177.2
Gene expression level after 2 weeks, mean: NIPSNAP2 (glioblastoma co-amplified) (rostral hypothalamus): 118.7
Gene expression level after 2 weeks, mean: Na,K-ATPase (rostral hypothalamus): 1,453.2
Gene expression level after 2 weeks, mean: Neural cell adhesion molecule 1 (rostral hypothalamus): 988.6
Gene expression level after 2 weeks, mean: Neurofibromin (rostral hypothalamus): 144
Gene expression level after 2 weeks, mean: Oligodendrocyte myelin glycoprotein OMGP (rostral hypothalamus): 773.5
Gene expression level after 2 weeks, mean: PKR Interferon-inducible (rostral hypothalamus): 128.25
Gene expression level after 2 weeks, mean: Phosphodiesterase 4B (rostral hypothalamus): 60.6
Gene expression level after 2 weeks, mean: Phosphoinositide 3-kinase (rostral hypothalamus): 241.5
Gene expression level after 2 weeks, mean: Phosphoinositide-3-kinase, catalytic, delta polypeptide (rostral hypothalamus): 241.5
Gene expression level after 2 weeks, mean: Phospholipase C (rostral hypothalamus): 72.1
Gene expression level after 2 weeks, mean: Pim1 (rostral hypothalamus): 327.5
Gene expression level after 2 weeks, mean: Pinin, Desmosome associated protein (rostral hypothalamus): 119.7
Gene expression level after 2 weeks, mean: RAB1 (rostral hypothalamus): 143.9
Gene expression level after 2 weeks, mean: RAB5 (rostral hypothalamus): 809.8
Gene expression level after 2 weeks, mean: RAB11A (rostral hypothalamus): 344.9
Gene expression level after 2 weeks, mean: RAB11B (rostral hypothalamus): 71.2
Gene expression level after 2 weeks, mean: RAS p21 protein activator (rostral hypothalamus): 163
Gene expression level after 2 weeks, mean: RNP24 (rostral hypothalamus): 558.2
Gene expression level after 2 weeks, mean: Reticulon 4 (rostral hypothalamus): 1,309.2
Gene expression level after 2 weeks, mean: Retinoic acid receptor (rostral hypothalamus): 110
Gene expression level after 2 weeks, mean: Ribosomal protein kinase B (RSK-B) (rostral hypothalamus): 120
Gene expression level after 2 weeks, mean: SFRS protein kinase 2 (rostral hypothalamus): 205.8
Gene expression level after 2 weeks, mean: SNARE (rostral hypothalamus): 55.4
Gene expression level after 2 weeks, mean: STAT1 (rostral hypothalamus): 119.3
Gene expression level after 2 weeks, mean: Sodium/hydrogen exchanger (rostral hypothalamus): 785.5
Gene expression level after 2 weeks, mean: Sphingomyelinase (rostral hypothalamus): 259.5
Gene expression level after 2 weeks, mean: TYRO3 (rostral hypothalamus): 163.1
Gene expression level after 2 weeks, mean: TrkB (rostral hypothalamus): 40.8
Gene expression level after 2 weeks, mean: Tropomyosin 2 (beta) (rostral hypothalamus): 131.6
Gene expression level after 2 weeks, mean: Tropomyosin 4 (rostral hypothalamus): 140.6
Gene expression level after 2 weeks, mean: c-abl (rostral hypothalamus): 119.4
Gene expression level after 2 weeks, mean: c-raf (rostral hypothalamus): 327.5
Gene expression level after 2 weeks, mean: c-yes (rostral hypothalamus): 64.7
Gene expression level after 2 weeks, mean: RalGDS/AF-6 (inhibitor of Cyclin D1) (second line, organ cell empty (below ROHY)): 354.5
